Reference: patent publication US20040014209A1, “Compositions and methods for modulating cell differentiation” (priority 2002, published 2004)

Experiments:
SP cells = experiment: FACS of Hoechst 33342 treated quail SP cells; format: cell-based; settings: negative control in FACS sorting
Description: SP cells were isolated from quail by FACS isolation relying on Hoechst 33342 and propidium iodide to distinguish different cell populations. Cells were incubated in Hoechst 33342 at 37° C. for 60-90 minutes. Cells were then collected by centrifugation, washed in PBS and resuspended in a propidium iodide solution. As a negative control, a fraction of the primary cells were incubated in parallel with verapamil, which blocks Hoechst 33342 efflux. Sorting was performed on a FACS Advantage Plus flow cytometer and fluorescence of Hoechst 33342 and propidium iodide was measured on a linear scale (Goodell et al. (1996) J. Exp. Med. 183:1797; Goodell et al. (1997) Nat. Med. 3:1337 and Gussoni et al. (1999) Nature 401:390). The cells were then pelleted by centrifugation.

[1] = test system: presumptive heart field of chick embryos; experiment: Implantation of Wnt-expressing cell pellets into the precardiac region of embryos in New culture; format: in vivo; settings: cell pellets implanted at stage 3+ to 4; in situ hybridization
Source text: FIG. 15. Overexpression of Wnt genes blocks cardiogenesis in precardiac mesoderm. (A) Whole-mount in situ hybridization for Nkx-2.5 in chick embryos in which pellets of chick embryo dermal fibroblasts infected with either RCAS-mWnt-3a or control RCAS-AP were implanted into the precardiac region of embryos in New culture at stage 3^+ to 4. […] (B) Red line in A indicates the level of this section. […] (C) Ectopic Wnt expression suppresses cardiogenesis in anterior lateral plate mesoderm explants. Stage 5 anterior lateral plate mesoderm from the precardiac region was infected with either control virus (RCAS-GFP, lane 1; RCAS-AP, lane 3), or RCAS-Wnt-3a (lane 2) or RCAS-Wnt-8c (lane 4). Cultures were carried out in the presence of 200 ng/mL BMP-4 overnight followed by 48 h in 20 ng/mL BMP-4. Transcript levels were evaluated by RT-PCR.
As inhibition of Wnt signaling can induce cardiogenesis in the PLP mesoderm, we hypothesized that expression of Wnt signals in the heart field would have the opposite effect. To address this issue, we examined whether ectopic expression of Wnt-3a in the presumptive heart field affects the expression of Nkx-2.5 in vivo. […] However, these in vivo experiments affected all three germ layers. […]

APMEE explants = experiment: APMEE explant culture, cardiac gene expression by RT-PCR; format: cell-based, chick; settings: stage 9 APMEE explants; RCAS-Wnt-3a infection (n=24) or coculture with Rat-1/Wnt-1-HA cells (n=12)
stage 7 chick embryos = experiment: Cell pellet implantation into stage 7 chick embryos in New culture (heart looping, DiI tracing, in situ hybridization); format: in vivo; settings: fibroblasts expressing Wnt-1 implanted into one side of heart-forming region, stage 7

Molecule | Hoechst 33342 dye retention of SP cells (SP cells) | Nkx-2.5 expression in the presumptive heart field [1] | APMEE explants in which cardiogenesis was blocked (APMEE explants) [%] | Nkx-2.5 expression in heart-forming region (stage 7 chick embryos)
COc1ccc(CCN(C)CCCC(C#N)(c2ccc(OC)c(OC)c2)C(C)C)cc1OC (stereo not shown) [verapamil] | blocks the channel(s) responsible for low dye retention | – | – | –
Wnt-1: delivered by Rat-1 cells stably overexpressing Wnt-1 (protein, UniProt P04426 28-370, looked up) Proto-oncogene Wnt-1: ANSSGRWWGIVNIASSTNLLTDSKSLQLVLEPSLQLLSRKQRRLIRQNPGILHSVSGGLQSAVRECKWQFRNRRWNCPTAPGPHLFGKIVNRGCRETAFIFAITSAGVTHSVARSCSEGSIESCTCDYRRRGPGGPDWHWGGCSDNIDFGRLFGREFVDSGEKGRDLRFLMNLHNNEAGRTTVFSEMRQECKCHGMSGSCTVRTCWMRLPTLRAVGDVLRDRFDGASRVLYGNRGSNRASRAELLRLEPEDPAHKPPSPHDLVYFEKSPNFCTYSGRLGTAGTAGRACNSSSPALDGCELLCCGRGHRTRTQRVTERCNCTFHWCCHVSCRNCTHTRVLHECL | – | similarly extinguished endogenous Nkx-2.5 expression | 50 | blocked subsequent expression of Nkx-2.5
